Results taken from paper PMC10895266, “The structure of the Caenorhabditis elegans TMC-2 complex suggests roles of lipid-mediated subunit contacts in mechanosensory transduction” (Proceedings of the National Academy of Sciences of the …, 2024).

Target: the molecule itself
Assay: cryo-EM structure; single-particle cryo-EM of the native TMC-2 complex isolated from worms (anti-FLAG affinity, SEC, GDN, 1 mM CaCl2); cis-dimeric particles selected

B1: TMC-2 (transmembrane channel-like protein 2), native, tagged with mVenus-3xFLAG at the endogenous locus (natural protein, C. elegans, UniProt Q11069 1-1203, looked up)
chain: MPKSGAHQPLVRHDTDDGGETGQSVKSLADVSEEEIDSRMSRRSSVIADLLSLFRRSSSVLVRPHTRLGNPNFDDDDDEFDEEDDKEASKDRILKKIQQKKEIIQKLRGQPWYMKRKRRTLKVAQKHLQQQEAKVSKARLYKAEAGRRLTQASRWLDNLKIYLIPWEAKIRKIESHFGSVVSSYFTFHRWVLGVNITITFIMCMFVVIPEWLADSRTQFGDDRYNKTKAIKVMPPAVRARADELSTVWDFGGYFQYSLLFYGFYSKETFFGETIKYRVPVAYFFCNIFILGFSLFIILRKMAANNRRGTLSSGKTQQYLFNWKAFTGWDYTIGNPETAGNVYMANVIKFREAINDDKQKPSDKHPWIRFVARVLTNLFICAMYVFSIWAIMQCGTLKGEHFFAQNATAITISLITLVFPNIFDLLGKIEKLHPRNALRFQLGRVLVLYILNYYTLIYSLMLQLEHLQKEKNASDNPISALGHPGDAIGRTIRETVLPRYPVDNNPHTYYSYAPVTTTPIPATSSWTTVLPDFGPFGVYNPKASVTKDDTVFSSPVVETHMFGPNSDWNETTVNAASPTGATTRASLRMSQGGLCWETIIGQEITKLVTMDLYMTVASIFLIDFLRGLACRYLNLYWPWDLERTFPEYGEFKVAENVLHLVNNQGMIWLGLFFVPLLPMLNNIKLIILMYIRGWAAMTCNVPASQIFRASRSSNFFFALLILFLFLCTLPVGFVIASKTPSKSCGPFGNQSFFYSVITDVLHENLDKTLVNGIKYSLSPGIIIPVLVLLSLVIYFLIAMVTGLSQANQDLSFQLMVERTEEKKKIFELAGGKKKKSKDNTFGKQKPKQLLPPPTKGVSSDDDSQHNRSTAKSVSGRQFVPSLGSVSEVDHSTGEEQSSDSESTTSSLPPKLSLRQRFLVCIGWADPNKYGRHDDIEMEEGGGRLRELSTGSETDSDDEDSEKSNRDMSYRTAIQSFDQNSQSASASSSKSTTTAPSNSEMRIEITENPLHTYITPLRIEKKSSASSSSSSHQPSSSIEKQAARRLLQPISTTHNIRYGVATVENSSQDPTRPPSTDDSLGDPALHEPLWANLNPHSSYTSAMMSPIMNEVMSNDETTDDEKGRLIPDRPPIPHSPRELKRLKREKDQQSESGSKPSTPRPPRFRISMSPPRKPPSEKNDSDSSNRKYEMRVEKSPKKPKKSDND
modifications: N-glycans at N225 and N748
notes: TMC-2, C. elegans, endogenous tmc-2 gene (Wormbase B0416.1a); tag inserted prior to the stop codon; residues M1 to D1203 named; modelled 89-471, 583-813; A 3C (PreScission) site lies between mVenus and 3xFLAG; The complex was captured on anti-FLAG resin by the 3xFLAG tag, which was cut off on elution with 3C protease before SEC, mass spectrometry and cryo-EM; also called TMC-2-mVenus; …
With B1 the “stoichiometry N” value was 2.
